B1: FLAG-tagged IRAK2 WT [mouse] / ALYREF [human (endogenous in IL1R-293 and HeLa)] (parent)
chain 1: MACYIYQLPSWVLDDLCRNIDTLSEWDWMQFASYVITDLTQLRKIKSMERVQGVSITRELLWWWSMRQATVQQLVDLLCHLELYRAAQIVLSWKPVPESTSPLPAFPEAVKPGAVATSRRNLKDEQEKVRPVKPRSLLDTGPIMAGAQRQRPCEMDAPCSLKTDAPDSPQSKYCSTSTSAPKQERLLGLPGDRLFWSEADVVQATEDFDQSHRISEGTFADIYQGQRNGVAFAFKKLREVAGSSPGSMDRFLQAEMQLCLRCCHANVLPLLGFCTGRQFHSLIYPYMANGSLHDRLWAQGNSDMLPWPQRASICSGLLLAVEHLHSLDIIHSNVKSANVLLDQHLNPKLAHPVAHPHPDNKKTKYTVMRTHLFQASAAYLPEHFIRVGQLTKQVDIFSCGIVLAEVLTGIPAMDKDRSPVYLKDLLLSEIPNSTSSVCSRKTSMGKAVVKEICQRHVEKRAGLLPEACEEAWATAVSVCLRRRNASVEEARVSLAGVEEQLRGQLSLPWSRVSEATGSSSNTPEETDDVDNSSLSVPSLVMMASCPGAASSPLFTGHGAAQPSTSGRQEADSSSEACTGPQTPQNATETSWKIEINEAKRRLMENIVLYKEERLDSSELFGP
chain 2: not shown

Variants of: B1
Assay: proximity ligation assay (PLA)
Conditions: with ALYREF [human (endogenous in IL1R-293 and HeLa)]; Hela cells transfected; Mouse anti-ALYREF and Rabbit anti-FLAG antibody; read off a plot

First: chain 1 K235A K236A
Second: chain 1 K123R K182R K592R
The response (% PLA positive cells) of the first is lower: 0.2 for the first, 0.45 for the second.

Work on chain 1 K361A K362A K364A yielded a response (% PLA positive cells) of 0.6.
